Measured values as given in article PMC6208778, “eIF2A, an initiator tRNA carrier refractory to eIF2α kinases, functions synergistically with eIF5B” (Cellular and Molecular Life Sciences: CMLS, 2018).

B1: GST–eIF2A (462–501) (domain or fragment, human, UniProt Q9BY44 462-501, looked up)
chain: HEEEPPQNMKPQSGNDKPLSKTALKNQRKHEAKKAAKQEA
notes: also called M domain; source: E. coli BL21, purified
B2: His-tagged eIF2A (natural protein, human, UniProt Q9BY44 1-585, looked up)
chain: MAPSTPLLTVRGSEGLYMVNGPPHFTESTVFPRESGKNCKVCIFSKDGTLFAWGNGEKVNIISVTNKGLLHSFDLLKAVCLEFSPKNTVLATWQPYTTSKDGTAGIPNLQLYDVKTGTCLKSFIQKKMQNWCPSWSEDETLCARNVNNEVHFFENNNFNTIANKLHLQKINDFVLSPGPQPYKVAVYVPGSKGAPSFVRLYQYPNFAGPHAALANKSFFKADKVTMLWNKKATAVLVIASTDVDKTGASYYGEQTLHYIATNGESAVVQLPKNGPIYDVVWNSSSTEFCAVYGFMPAKATIFNLKCDPVFDFGTGPRNAAYYSPHGHILVLAGFGNLRGQMEVWDVKNYKLISKPVASDSTYFAWCPDGEHILTATCAPRLRVNNGYKIWHYTGSILHKYDVPSNAELWQVSWQPFLDGIFPAKTITYQAVPSEVPNEEPKVATAYRPPALRNKPITNSKLHEEEPPQNMKPQSGNDKPLSKTALKNQRKHEAKKAAKQEARSDKSPDLAPTPAPQSTPRNTVSQSISGDPEIDKKIKNLKKKLKAIEQLKEQAATGKQLEKNQLEKIQKETALLQELEDLELGI
notes: eukaryotic initiation factor 2A (eIF2A); also called His–eIF2A; eukaryotic initiation factor 2A; source: E. coli M15 (plasmid pQE31/His–eIF2A), purified

Columns and labels:
[1] = biological target: T1, His-tagged eIF5B (587–1220) (UniProt O60841 587-1220); assay: co-IP; purified His-tagged eIF5B (587–1220) and GST-fused eIF2A (462–501) mixed; the former precipitated with an anti-His-conjugated resin; western blotting with anti-GST; conditions: both partners purified
T1 construct: eIF5B, residues 587–1220; The methods describe only the GST-fused eIF5B; also called purified eIF5B; source: purified
T1 sequence (looked up): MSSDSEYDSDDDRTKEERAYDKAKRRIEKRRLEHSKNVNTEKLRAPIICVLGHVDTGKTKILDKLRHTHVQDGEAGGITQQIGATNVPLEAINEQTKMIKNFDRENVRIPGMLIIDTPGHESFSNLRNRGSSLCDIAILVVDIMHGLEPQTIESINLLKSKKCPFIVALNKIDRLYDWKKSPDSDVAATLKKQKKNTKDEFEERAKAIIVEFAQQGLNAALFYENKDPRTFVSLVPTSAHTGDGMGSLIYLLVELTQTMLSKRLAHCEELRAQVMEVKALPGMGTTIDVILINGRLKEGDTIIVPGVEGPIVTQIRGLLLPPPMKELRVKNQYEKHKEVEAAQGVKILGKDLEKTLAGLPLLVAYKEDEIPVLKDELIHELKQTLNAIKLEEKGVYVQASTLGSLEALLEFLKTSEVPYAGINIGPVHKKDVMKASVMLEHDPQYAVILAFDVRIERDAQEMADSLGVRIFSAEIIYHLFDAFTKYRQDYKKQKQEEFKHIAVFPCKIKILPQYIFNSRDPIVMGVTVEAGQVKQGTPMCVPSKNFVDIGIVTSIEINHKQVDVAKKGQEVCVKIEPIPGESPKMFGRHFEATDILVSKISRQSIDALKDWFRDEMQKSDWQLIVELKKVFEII

[2] = biological target: T2, GST-fused ΔeIF5B(587–1220) (UniProt O60841 587-1220); assay: pull-down; GST pull-down with recombinant proteins purified from E. coli extracts; GST fusions as bait, His–eIF2A detected by western blotting with anti-His; conditions: both partners purified
T2 construct: eukaryotic initiation factor 5B (eIF5B), residues 587–1220, lacking the N-terminal region; also called GST–eIF5B; GST–eIF5B (587–1220); source: E. coli BL21, purified
T2 sequence (looked up): T1 sequence (looked up)

Binder	binding result [1]	binding result [2]
B1	binds	–
B2	–	binds
